Laboratory results from patent US20140287419A1, “Compositions Having Dicamba Decarboxylase Activity and Methods of Use” (priority 2013, published 2014).

B1: SEQ ID NO:51: TIM-barrel fold metal-dependent hydrolase, Mycobacterium gilvum Spyr1 (protein, listed as Mycobacterium gilvum)
chain: MARVIAIEEHYAHPGLQPAEALANLRKHPQLARIQDKLEDLGAGRLADMDAAGIDMQVLSHTVPGAEALPAAQAVDVVRQTNDDLAEVIAAHPDRFAGFAALPMRDPQAAATELQRAVGTLGFCGAMINGLIEGRFLDHPDFTPLLSTAADLGVPLYLHPSFPPPQVAQIYFGGLPPVLADLLATAGWGWHAETALHVLRLISTGVFDRLPELRVIVGHMGEMIPFALARIDTVLSPMTELRQPVAQYFQTNVWFTTSGYTTFPPLQCALSTVGIDRLIFSVDYPYTDNASARALLDTAPISPVDREKLAHATVEALLRV
B2: SEQ ID NO:87: amidohydrolase, Novosphingobium sp. PP1Y (protein, listed as Novosphingobium sp.)
chain: MASDIATAADLQTGGRQGYLRIATEEAFATRDQIDVYLRMVRDGTADRGMTSLWGFYAQSPSARATQIIERLLDLGEQRLADMDAAGIDKAVLALTSPGVQPLLDMEEARRIAGNANDRLAERCAAHPDRFIGMTAVAPQDPQWSAREILRGATQLGFKGVQINSHTQGRYLDEPFFDPIFRALGDVGQPLYIHPGTPPDSMIGPLLDAGLDGAIYGFGVETGMHLLRLITAGIFDRYPDLQIMVGHMGEALPYWLYRLDYMHQAGIRSQRYERMRPLKRTIAGYFRSNVLVTCSGMAWEPAIQFARQVMGEDRVMYAMDYPYQYEADEVRALDVMDLSPESKRKFFQTNAERWFDL
B3: SEQ ID NO:81: 2-amino-3-carboxymuconate-6-semialdehyde decarboxylase, Verticillium dahliae VdLs.17 (protein, listed as Verticillium dahliae)
chain: MAASTKPKVVDIHTHMYPPSYIDILTSRTAIPVVRTFPQAADPRLILLDAEQQALDAALQDPTAKPPGRPLTSHYASLDQKIHFMDTHSIDISVVSLANPWLDFIEPKEAAATARSVNDEFEAMCASQPGRLFFFAALPLTAPLPALLEAVRHVAELEHCRGVILGTSGLGSGLDDPELVPVLEAVAAAALTVFLHPHYGLPNDVWGPRASAEYGHVLPLALGFPMETTIAVARMYLAGVFDRVPALRMLLAHSGGTLPFLAGRIESCILHDGQLVAEGKVGAARRTIWDVLREQVYLDAVIYSEIGLKAAIAASGGADRLMFGTDHPFFPPLGTDEQAKKESRINAGGSRPMITGNAMINGHGGLCNHITQSDYQDVVL
B4: SEQ ID NO:2: o-pyrocatechuate decarboxylase, Serratia sp. AS12 (protein, listed as Serratia sp.)
chain: MAKIICLEEHTLDKALVMASMPAALEQAPFLSDWGKTVTDGNLPDRSRPQIEKNDLINIKGADIGRGRLDDMDVAGITMQVLSVGGFPHLISAAEGVDLNRAANDRLADAVNAHPDRFAAFATLPWAQPDSAEKELERAVKELGFKGALLNGRPSTHFLDHPDYDGLLARFNALGVPLYLHPGLPVRSVQQAYYGGFSDEVTARLSMFGWGWHHEAGIHLLRLILSGAFDKYPNLQVISGHWGEMLPFWLQRLDDSLPQAATGLRRTIAQTFKEQVYVTPSGMLTLPHFQFIYALLGAERIIFSVDYPYQTLDGVKAFIQSLPVPEEAKEAIAFRNAERLLGLTS
B5: SEQ ID NO:55: o-pyrocatechuate decarboxylase, Serratia sp. AS12 (protein, listed as Serratia sp.)
chain: MAKIICLEEHTLDKALVMASMPAALEQAPFLSDWGKTVTDGNLPDRSRPQIEKNDLINIKGADIGRGRLDDMDVAGITMQVLSVGGFPHLISAAEGVDLNRAANDRLADAVNAHPDRFAAFATLPWAQPDSAEKELERAVKELGFKGALLNGRPSTHFLDHPDYDGLLARFNALGVPLYLHPGLPVRSVQQAYYGGFSDEVTARLSMFGWGWHHEAGIHLLRLILSGAFDKYPNLQVISGHWGEMLPFWLQRLDDSLPQAATGLRRTIAQTFKEQVYVTPSGMLTLPHFQFIYALLGAERIIFSVDYPYQTLDGVKAFIQSLPVPEEAKEAIAFRNAERLLGLTS
B6: SEQ ID NO:79: hypothetical protein PTT_18638, Pyrenophora teres f. teres 0-1 (protein)
chain: MATTTTPSTLIATLESHLTPTLAFTSPTTSPTQPALHLIPPTTLTKLRNLGPGRVKDMHMLGHSRQIISHIPVAAPPQICSRFNDAIHAATMTNTAKFSVLAVLPTDGMEAAKELARCVSKYRFVGGVIGLNRGLRINGEGWEELWGLAERLRIPIMFREMWPLAFEIVDYQHHLPYSALGPILTQLHTSHTSSPLPLVRLYLSSVFDHYPSLRLVLAHPGSLPSLVPRIESLINSIPATDKPKRSFLDVWQHNIYLTTADAQDMSSLRALLEQIPVDRVLYASNYPFEERGNELMNELRESEFLTNIEWERVAWVNAETLFNLKEAGTKEARQLTTIPSSRS
modifications: Pyrenophora teres
B7: SEQ ID NO:52: putative decarboxylase, Streptomyces sp. SA3_actG (protein, listed as Streptomyces sp.)
chain: MAKIIALEEHFSDPAVAKAGAARAQALSPGFAASYSPASGLPYSPSPEVLENLAEKRLADMDAGGITMQVLSGLSAQTVPADVAPALVAGSNDKAAAAVRAHPDRFAAFAALPTAAPEAAVAELDRSVNELGFVGTLIMGRTEGEFLDAPRFEPILARAAALKVPVFLHPGVPPREITDSNYAAGLPTGIGTRLQTAAWGWHQETAVHFLHLVHSGVLDRYPDLQFILGHWGETIPFYLDRVDEALPQRATGLDRSFHEYFRENVYLAPSGMWSQAQLRFCLETFPLERIVFAVDYPFIGNEGAVPFLEKAELPEADKRKIAHENAERLLGL
B8: SEQ ID NO:54: putative decarboxylase, Streptomyces sp. Tu6071 (protein, listed as Streptomyces sp.)
chain: MAKIIALEEHFSDPAVAKAGAARAQALSPGFAASYSPASGLPYSPSPEVLENLAEKRLADMDAGGITMQVLSGLGAQTVPADVAPALVAGSNDKAAAAVRAHPDRFAAFAALPTAAPEAAVAELDRSINELGFVGTLIMGRTEGEFLDAPRFEPILARAAALKVPVFLHPGVPPREITDSNYAAGLPTGIGTRLQTAAWGWHQETAVHFLHLVHSGVLDRYPGLQFILGHWGEMIPFYLDRVDEALPQRATGLDRSFHEYFRENVYLAPSGMWSQAQLRFCLETVPLERIVFAVDYPFIGNEGAVPFLEKAELPEADKRKIAHENAERLLGL
B9: SEQ ID NO:56: hypothetical protein EAE_19025, Enterobacter aerogenes KCTC 2190 (protein)
chain: MAKIICLEEHYLDSELGRACMPVALEQAPFLGDWGKTVADGHNPDRSRPQIEKNALINAKGADLGSRRLRDMDEAGITLQILSVGGFPQLAPEDEAVTLNTAANDRLAEAVRNHPDRFAAFATLPWAQPKDAENELVRAVEKLGFKGALLNGRPSSCFLDHPDYDSLLSRFNKLNVPLYLHPGLPLKSVQQAYFTGFSAEVNARLSMFGWGWHHEAGIHLLRLMLSGAFDKYPNMQVISGHWGEMLPFWLQRLDDSLPLAATGLSRTLTRTFQEHVYVTPSGMLTLPHFKFIYELMGAERILFSVDYPYQTLDGVKTFIDSLPVNKAEKEAIAFRNAERLLGITA
modifications: Enterobacter aerogenes
B10: SEQ ID NO:58: amidohydrolase 2, Mycobacterium colombiense CECT 3035 (protein)
chain: MARVIALEEHYATTEFLRGPGTWLASRPGIVEPAGDLGDGRIAAMDQAGVDLAVLSLAAPGVEQLDPDDAVRLARDCNDQLAAAVRRYPDRLAGFATVPTSAPDRAADELERAVRGLGFPGAVINGHSRGRYLDDPFFEPVLARAAELQAPIYLHPTIPPAGVIESSYAGFAEPVTFALATVGWGWHINTATHALRMILGGVFDRHPSLQMIIGHMGEATSFMLPRFDATLKPELTGLNHPVSSYLRENFHYTFANFNDHATYANLVAQVGIERVAFSADYPFGSMVDARAFLDGLPLSDDERAAISHRNAEKLLGL
modifications: Mycobacterium colombiense
B11: SEQ ID NO:53: amidohydrolase, Granulicella tundricola MP5ACTX9 (protein, listed as Granulicella tundricola)
chain: MARTITLEEHFVTDSFLRATGAYDKPAPPWLAQLQPKLLDLGDGRIAAMDEAGIDLQVLSLAALGFDALDAATATPLVHDINDELAAAVRANPTRLAAFASLALKDPQSAARELERAIQKLGFRGVLLDGTTDGLFLDDPRFTPVFEAAVALNVPIYLHPAPPPESVFDTYFTGLPEGVGQMLSIAGWGWHAETALHTLRLITNGVFDRYPTLQLIIGHMGEMLPMALARTSKALSHAARLRQPVAAYFQSNIHLTTSGYFTQPPLRCALDVVGIDRLMFSIDYPFSANTLGRDYLTELEQTLTPEDLAKLIHRNAESLLNLS
B12: SEQ ID NO:50: hypothetical protein SSMG_03140, Streptomyces sp. AA4 (protein, listed as Streptomyces sp.)
chain: MARIVTLEEHWTDPAVTAAGMPNLLDHVPGYAAAFDPDTGMPYPRHPELLEDLGAARIADMDRHGITTQVLSLVNTFLPADVAPRLTAAANDAMAAAVEAFPGRFAAFATLPTAVPGAAADELRRCVGELGFVGTMIMGRTDGEFLDQPRFDPILRAASDLSVPVYLHPAPPPVAVSEASYAGGLSPAVSAAFRLAAWGWHQETAVHLLHLVLAGVLDRYPGLQFVLGHWGEFIPFYLDRLDESMPRRMTGLDRTFREYFRDNVFITPSGMFSQAQLRYCADTVGTDRIIHSVDFPMLGNEGAVSFLTDSHLSREDQEKIAHGNADALLGLG
B13: SEQ ID NO:57: amidohydrolase, Collimonas fungivorans Ter331 (protein)
chain: MAKLICVEEHVLDPAVGAATQSLVRAEAPYLPDWGSRVLDGRHVADRSRPHVIAPSESARKALEMGEPRLADMDAASIDMQVLSYGGFPQLLPAAQAIDLNRAANDKLALAAQAHPARFAGFATLPWQAPEAAARELERAVKQLGLKGALINGRPGDTFLDDARYAPILAAFDELKVPLYVHPGLPLPAVQAPYYGGFERELSARLAMFAWGWHNEAGIQVVRMLLAGVFDRHPRLQLISGHWGEMVPFFLQRLEDSIPQEASGLQRPIVQTYREHVYISPSGMFTLPHFQFIHALMGAQRILYSIDYPYQSLDGARAFIERLPISDTDKALIAHRNAERLLHL
modifications: Collimonas fungivorans

assay: 14C assay with IPTG-induced recombinant E. coli cells (14CO2 capture from [14C]-carboxyl-labeled dicamba); conditions: E. coli cell assay, 108 sequences tested

Molecule | decarboxylation activity of dicamba
B1 | showed decarboxylation activity of dicamba
B2 | showed decarboxylation activity of dicamba
B3 | showed decarboxylation activity of dicamba
B4 | showed decarboxylation activity of dicamba
B5 | showed decarboxylation activity of dicamba
B6 | showed decarboxylation activity of dicamba
B7 | showed decarboxylation activity of dicamba
B8 | showed decarboxylation activity of dicamba
B9 | showed decarboxylation activity of dicamba
B10 | showed decarboxylation activity of dicamba
B11 | showed decarboxylation activity of dicamba
B12 | showed decarboxylation activity of dicamba
B13 | showed decarboxylation activity of dicamba
